The results in this text go back to patent US20220298216A1 (SYRACUSE UNIVERSITY, published 2022).

The target of assay [1] is GOAT (human) (UniProt Q96T53). Put plainly: GOAT inhibition assay.
For assay [2], the target named is ghrelin receptor (GHS-R1a) (Homo sapiens (Human)) (UniProt Q92847). The assay is described as follows: competition binding assay on the ghrelin receptor, IC50.
For assay [3], the target named is T1, human ghrelin O-acyltransferase (hGOAT) (human, UniProt Q96T53 1-435, limits assumed).
T1 sequence (looked up): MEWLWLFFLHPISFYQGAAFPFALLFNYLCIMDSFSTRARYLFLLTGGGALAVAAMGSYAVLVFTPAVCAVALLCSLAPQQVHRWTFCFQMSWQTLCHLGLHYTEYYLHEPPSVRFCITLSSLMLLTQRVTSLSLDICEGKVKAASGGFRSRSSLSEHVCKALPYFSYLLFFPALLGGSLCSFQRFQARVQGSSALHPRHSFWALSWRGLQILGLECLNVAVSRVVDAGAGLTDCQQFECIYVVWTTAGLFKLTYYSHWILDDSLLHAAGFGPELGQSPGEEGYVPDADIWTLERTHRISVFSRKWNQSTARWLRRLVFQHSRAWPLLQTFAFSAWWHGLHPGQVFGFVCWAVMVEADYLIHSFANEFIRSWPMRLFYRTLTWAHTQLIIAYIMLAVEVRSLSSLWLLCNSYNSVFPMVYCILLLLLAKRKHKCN
Put plainly: cell-based or functional assay.

Non-standard residues stand in square brackets, D forms with d. No end group written: not given here. NMeF = CN[C@@H](Cc1ccccc1)C(=O)O; NMeL = CN[C@@H](CC(C)C)C(=O)O; NMeS = CN[C@@H](CO)C(=O)O; Dap = NC[C@H](N)C(=O)O; Sar = CNCC(=O)O Bounds are passed on as bounds.

Chain of ghrelin receptor (GHS-R1a) (Homo sapiens (Human)) (Q92847 whole entry, form in doubt): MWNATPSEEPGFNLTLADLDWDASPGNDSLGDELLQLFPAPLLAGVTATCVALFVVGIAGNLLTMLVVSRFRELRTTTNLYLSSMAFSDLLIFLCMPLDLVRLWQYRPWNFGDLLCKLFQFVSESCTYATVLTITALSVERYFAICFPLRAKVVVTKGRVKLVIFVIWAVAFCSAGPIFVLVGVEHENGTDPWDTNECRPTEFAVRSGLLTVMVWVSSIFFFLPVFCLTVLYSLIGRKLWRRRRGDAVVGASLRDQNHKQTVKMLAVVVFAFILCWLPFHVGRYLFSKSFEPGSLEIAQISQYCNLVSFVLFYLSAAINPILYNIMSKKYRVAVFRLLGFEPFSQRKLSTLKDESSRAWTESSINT

Usually IC50 stands for the point on the concentration scale where inhibition reaches its midpoint. Read a high IC50 as a need for much substance. With GS[Dap]FLS, the half-maximal inhibitory concentration (IC50) in assay [1] worked out at 74 nM.
On the same count and under the same terms, next, Ac-SDapFL: above 100000 nM; GSDapF: 1200 nM; GSDap: above 100000 nM.
SDapFL gave an IC50 in assay [1] above 100000 nM.
With “ghrelin-derived peptide with a sarcosine substitution at the G1 position”, the fold loss in binding affinity (IC50) against the unsubstituted peptide in assay [2] was above 25 fold.
SarSDapN·MeF (peptide) registered an IC50 (µM), inhibitor potency against hGOAT in assay [3] of 1.5 µM.

B1: GN·MeSDapFL (peptide)
peptide: G[NMeS][Dap]FL
In the case of B1, in assay [3], the IC50 (µM), inhibitor potency against hGOAT was above 100 µM.

B2: GSDapFL (peptide)
peptide: GS[Dap]FL
Molecule B2 gave an IC50 (µM), inhibitor potency against hGOAT in assay [3] of 0.14 µM.

B3: GSDapN·MeFL (peptide)
peptide: GS[Dap][NMeF]L
In the case of B3, in assay [3], the IC50 (µM), inhibitor potency against hGOAT was 0.097 µM.

B4: SarSDapFL (peptide)
peptide: [Sar]S[Dap]FL
As to B4, the “IC50 (µM), inhibitor potency against hGOAT” value in assay [3] was 0.088 µM.

B5: SarSDapN·MeFN·MeL (peptide)
peptide: [Sar]S[Dap][NMeF][NMeL]
In turn, B5 gave an IC50 (µM), inhibitor potency against hGOAT in assay [3] of 6 µM.

B6: GSDapFN·MeL (peptide)
peptide: GS[Dap]F[NMeL]
In assay [3], B6 gave an IC50 (µM), inhibitor potency against hGOAT of 0.062 µM.
